Measurements as given in IntAct's records for PubMed 12529446.

Biological target: gef1_schpo gef1 (UniProt Q09763)
Sequence (Q09763 whole entry): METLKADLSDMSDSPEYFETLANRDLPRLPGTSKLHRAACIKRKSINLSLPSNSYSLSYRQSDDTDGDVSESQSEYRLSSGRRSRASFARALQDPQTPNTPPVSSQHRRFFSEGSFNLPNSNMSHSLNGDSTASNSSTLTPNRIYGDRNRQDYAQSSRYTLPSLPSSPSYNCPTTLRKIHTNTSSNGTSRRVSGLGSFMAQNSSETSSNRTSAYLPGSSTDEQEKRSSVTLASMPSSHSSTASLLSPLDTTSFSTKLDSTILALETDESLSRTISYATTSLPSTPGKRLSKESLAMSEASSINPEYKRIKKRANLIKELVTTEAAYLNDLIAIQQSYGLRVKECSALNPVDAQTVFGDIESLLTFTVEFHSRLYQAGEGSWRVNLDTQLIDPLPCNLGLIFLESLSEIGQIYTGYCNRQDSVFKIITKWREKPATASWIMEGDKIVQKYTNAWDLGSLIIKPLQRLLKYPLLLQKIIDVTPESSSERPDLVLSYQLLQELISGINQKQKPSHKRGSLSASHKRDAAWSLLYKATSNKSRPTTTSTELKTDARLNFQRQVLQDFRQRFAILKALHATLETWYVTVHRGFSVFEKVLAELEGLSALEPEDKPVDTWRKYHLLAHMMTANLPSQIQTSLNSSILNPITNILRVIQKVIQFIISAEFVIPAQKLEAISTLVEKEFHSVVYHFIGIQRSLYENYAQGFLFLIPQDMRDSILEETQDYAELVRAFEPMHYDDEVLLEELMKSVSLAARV

Chain of Cell division control protein 42 homolog (Schizosaccharomyces pombe (strain ATCC 38366 / 972)), Q01112 T17N (Q01112 whole entry T17N): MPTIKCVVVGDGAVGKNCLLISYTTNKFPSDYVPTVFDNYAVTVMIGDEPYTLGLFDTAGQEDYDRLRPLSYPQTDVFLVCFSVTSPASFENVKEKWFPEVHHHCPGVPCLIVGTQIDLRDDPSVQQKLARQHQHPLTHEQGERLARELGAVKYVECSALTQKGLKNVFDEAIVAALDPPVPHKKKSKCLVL
Chain of Cell division control protein 42 homolog (Schizosaccharomyces pombe (strain ATCC 38366 / 972)), Q01112 D118A (Q01112 whole entry D118A): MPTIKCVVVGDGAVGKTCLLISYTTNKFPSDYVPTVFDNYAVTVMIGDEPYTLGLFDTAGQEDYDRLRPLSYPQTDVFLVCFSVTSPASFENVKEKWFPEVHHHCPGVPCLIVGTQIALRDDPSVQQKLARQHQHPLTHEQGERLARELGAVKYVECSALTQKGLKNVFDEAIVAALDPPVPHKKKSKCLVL

effect of a mutation on the interaction	Substance
increasing interaction	Cell division control protein 42 homolog (Schizosaccharomyces pombe (strain ATCC 38366 / 972)), Q01112 D118A
increasing interaction	Cell division control protein 42 homolog (Schizosaccharomyces pombe (strain ATCC 38366 / 972)), Q01112 T17N
